test: yeast display, Sf9 membrane polyspecificity reagent, FACS + sequencing; frameworks hold sequencing errors
In short: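 Galactose-induced (36–48 hours) yeast carrying a synthetic nanobody display library were exposed to 10% biotinylated, detergent-solubilized Sf9 membrane reagent at 4 °C for 1 hour. FACS followed streptavidin microbead enrichment, using low and high (top ~1%) gates for expression (anti-HA) and reagent binding (streptavidin). Colony PCR, MiSeq 2 × 250 sequencing and CDR-length filtering followed. Labels for polyreactivity reflect the gate of origin.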

Sequence | polyreactivity (PSR sort gate)
QVQLVESGGGLVQAGGSLRLSCAASGSIFLSNAMGWYRQAPGKERELVASISGSGSTNYADSVKGRFTISRDNAKNTVYLQMNSLKPEDTAVYYCAAYQRYDSVTGARYEYDYWGQGTQVTVSS | low polyreactivity
QVQLVESGGGLVQAGGSLRLSCDASGSTFPVNAMGWYRQAPGKERELVAAISSRGSSTYYADSVKGRFTISRDNAKNTVYLQMNSLKPEDTAVYYCAAPQRYPRFYYWGQGTQVTVSS | high polyreactivity
QVQLVESGGGLVQAGGSLRLSCAASGLTFTTYAMGWYRQAPGKERELVAAISRRGSRTYYADSVKGRFTISRDNAKNTVYLQMNSLKPEDTAVYYCNALTGSFKTYSFDYWGQGTQVTVSS | high polyreactivity
QVQLVESGGGLVQAGGSLRLSCAASGSTFYSYAMGWYRQAPGTERELVAAITSRGDRTYYADSVKGRFTISRDNAKNTVYLQMNSLKPEDTAVYYCAAEQSWQGYAYYYWGQGTQVTVSS | high polyreactivity
QVQLVESGGGLVQAGGSLRLSCAASGIIFSIYVMGWYRQAPGKERELVAAISRSGGSTYYADSVKGRFTISRDNAKNTVYLQMNSLKPEDTAVYYCAKKPTSTYQPDSPRWSDYWGQGTQVTVSS | high polyreactivity
QVQLVESGGGLVQAGGSLRLSCSASGFIYPNNAMGWYRQAPGKERELVARISYGGGDTHYADSVKGRFTISRDNAKNTVYLQMNSLKPEDTAVYYCAVKDGQDDYWGQGTQVTVSS | low polyreactivity
QVQLLESGGGLVQAGGSLRLSCAASGRIFVYNVMGWSRQAPGKERELVADINGSGGGTIFADSVKGRFTISRDNAKNNVYFQMNSLKPVDTAVYYCNADSYEYHVPYYDYRYDYWGHGTQVTVSS | low polyreactivity
QVQLVESGGGLVQAGGSLRLSCAASGSTFSSYAMGWYRQAPGKERELVAATYYADSVKGRFTISRDNAKNTVYLQMNSLKPEDTAVYYCNADNDYQGGKEYDYWGQGTQVTVSS | low polyreactivity
QVQLVESGGGLVQAGGSLRLSCAASGFTFFYYAMGWYRQAPGKERELVASISWSGGSTYYADSVKGRFTISRDNAKNTVYLQMNSLKPEDTAVYYCAADVPFGGDYWGQGTQVTVSS | low polyreactivity
RVQLVESGGGLVKAGGSLRLSCAASGSIFYQYTMGWYRQAPGKERELVATISWSDVSTYYADSVKGRFTISRDNAKNTVYLQMNSLKPEDTAVYYCAALYWGWDRYYGYDYWGQGTQVTVSS | low polyreactivity
QVQLVESGGGLVQAVGSLRLSCAASGSTFAYYAMGWYRQAPGKEREFVAAISTRGGSTYYADSVKGRFTISRDNAKNTVYLQLISLKQEDTAFYYCAAGYFIYSWRIRFDHWGQGTQVTVSS | high polyreactivity
QVQLVESGGGLVQAGGSLRLTCAASGITFKFYAMGWYRQAPGKESELVAAITSGGGSTYYADSVKGRFTISRDNAKNTVYLQMNILKPEDTAVYYCNTYSIAYYSPCYDYWGQGTQVNVSS | high polyreactivity
QVQLVESGGGLVQAGGSLRLSCAASGRTFTVYAMGWYRPAPGKERELVAAISSGGITYYADSVKGRFTISRDNAKNTVYLQMNSLKPEDTAVYYCNTKSGKARYEFGYWGQGTQVTVSS | low polyreactivity
QVQLVESGGGLVQAGGSLRLSCAASGFTFRRYTMGWYRQAPGKERELVARISSRGGRTFYADSVKGRFTISRDNAKNTVYLQMNSLKPEDTAVYYCAKRAPYGTTSPGGDYWGQGTQVTVSS | high polyreactivity
QVQLVESGGGLVQAGGSLRLSCAASGRTFLRYRMGWYRQAPGKERELVATISRSGGGTTYADSVKGRFTISRYNAKNTVYLQMNSLKPEDTAVYYCNRDQTYPYQYNRWVGQYKYDYWGQGTQVTVSS | low polyreactivity
QVQLVESGGGLVQAGGSLRLSCAASGPMFTSNAMGWYRQAPGKERELVAAISRRGTRTYYADSVKGRFTISRDNAKNTVYLQMNSLKPEDTAVYYCAATTGEQEDYWGQGTQVTVSS | high polyreactivity
QVQLVESGGGLVQAGGILRISCAASGFIFDLYAMGWYRQAPGKERELVAAISGSGGSTYYADSVKGRFTISRDNAKNTVYLQMNSLKPEDTAVYYCAARRFGTNYDYWGQGTQVTVSS | high polyreactivity
QVQLVESGGGLVQAGGSLRLSCAASGRIFGINVMGWYRQAPGKERELVAAISYRTGSTYYADSVKGRFTISRDNAKNTVYLQMNSLKPEDTAVYYCAAQRRIRTAWYDYWGQGTQVTVSS | high polyreactivity
QVQLVESGGGLVQAGGSLRLSCAASGSIFVSYGMGWYRPAPGKERELVAAISGGGVSTYYADSVKGRFTISRDNAKNTVYLQMNSLIPEDTAVYYCAAEVSFGWGNYGYDYWGQGTQVTVSS | high polyreactivity
QVQLVESGGGLVQAGGSLRLSCAASGFIFRRNAMGWYRQAPGKERELVASIRSGGSTKYADSVKGRFTISRDNAKNTVYLQMTSLKPEDTAVYYCNADDPGYAVPWYWFKYDYWGQGTQVTVSS | low polyreactivity
QVQLEESGGGLVQAGGSLRLSCAASGRTFVYNTKGWYRQAPGKERELVAAITSSGGRTSYADSVKGRFTISRDNAKNTVYLQMNSLKPEDTAVYYCAKDRYTSSTQYRRYDYWGQGTQVTVSS | high polyreactivity

Sequence | polyreactivity (PSR sort gate)
QVQLVESGGGLVQAGGSLRLSCAASGSIFWGNAMGWYRQAPGKEREMVAAITWSGGSTYYADSVKGRFTISRDNAKNTVYLQMNSLKPEDTAVYYCYAVYIGSRRRYEYDYWGQGTQVTVSS | high polyreactivity
QVQLVESGGGLVQAGGSLRLSCAASGRIFSSNAMGWYRQAPGKERELVAAITKSGGGTYYADSVKGRFTISRDNAKNTVYLQMNSLKPEDSAVYYCAADHGRPYFSYDYWGQGTQVTVSS | low polyreactivity
QVQLVESGGGLVQAGGSLRLSCAASGSIFPFYAMGWYRQAPGKERELVAAITYSGGSTFYADSVKGRFTISRDNAKNTVYLQMNSLKPEDTAVYYCNAVWRFGSSKYYYWGHGTQVTVSS | high polyreactivity
QVQLVESGGGLVQAGGSLRLRSAASGRTFVPYHMGCYRQAPGKERELVADISSGDSTNYTDSVKGRFTISRDNAKNTVYLQMNSLKPEDTAVYFCAADLTYTMDHWGLGTQVTVSS | low polyreactivity
QVQLVESGGGLVQAGGSLRLSCAASGRTFRVYAMGWYRQAPGKERELVATITSSGGSTYYADSVKGRFTISRDNAKNTVYLQMNSLKPEDTAVYYCNVSVYYNYDSSYYYWGQGTQVTVSS | low polyreactivity
QVQLVESGGGLVQAGGSLRLSCAASGSTFNDNAMGWYRPAPGKERELVAAIRWSGGSTYYADSVKGRFTISRDNAKNTVYLQMNSLKPEDTAVYYCAASRRYYLTYRYYYWGQGTQVTVSS | high polyreactivity
QVQLVESGGGLVQAGGSLRLSCAASGFTFHGYAMGWYRQAPGKERELVAAIRSGDRTYYADSVKGRFTISRDNAKNTVYLQMNSLKPEDTAVYYCAVVYGYLYRYSAKYDYWGQGTQVTVSS | low polyreactivity
QVQLVESGGGLVQAGGSLRLSCAASGSTFQLYAMGWYRQAPGKERELVAAISGIGDSTYYADSVKGRFTISRDNAKYTVYLQMNSLKPEDTAVYYCAREFCDGLSGKFDYWGQGTQVNVSS | low polyreactivity
QVQLVESGGGLVQAGGSLRLSCAASGSIFRLNTMGWYRQAPGKERELVAAIFTSGGSTYADSVKGRFTISRDNAKNTVYLQMNSLKPEDTAVYYCAGMDYWGQGTQVTVSS | low polyreactivity
QVQLVESGGGLVQAGGSLRLSCAASGSIFLWYDMGWYRQAPGKEREFVASITRSGGSTYYADSVKGRFTISRDNAKNTVYLQMNSLKPEDTAVYYCAAGRRSSWRYYLWYDYWGQGTQVTVSS | low polyreactivity
QVQLVESGGGLVQAGGSLRLSCAASGSTFVRYVMGWYRQAPGKERELVAAIRYRGGSTYYADSVKGRFTISRDNAKNTVYLQMNSLKPEDTAVYYCATDWRRYTKQYGYWGQGTQVSVSS | high polyreactivity
QVQLVESGGGLVQAGGSLRLSCAASGFTFWRYAMGWYRQAPGKERELVAAISRTGGRTYYADSVKGRFTISRDNAKNTVYLQMNSLKPEDTAVYYCAAVKYETYRYNYDYWGQGTQVTVSS | high polyreactivity
QVQHVESGGGIVQAGGSLRLTCAASGSTFGGNGMGWYRQAPGKEREFVATNTWRSVSTYYADSVKGRFTISRDNAKNTDFLQMISLKPEDTAVYYCAARLYRFASYRMDYWGQGTQVTVSS | high polyreactivity
QVQLVESGGGLVQAGGSLRLSCAASGFTFVSYAMGWYRQAPGKERELVASITWTGGSTYYADSVKGRFTISRDNAKNTVYLQMNSLKPEDTAVYYDYWGQGTQVTVSS | low polyreactivity
QVQLVESGGGLVQAGGSLRLSCAASGINFDTNAIGWYRQAPGKERELVATITQRGGTTYYADSVKGRFTISRDNAKNTVYLQMNSLKPEDTAVYYCNAGPVGLPYDSWGQGTQVTVSS | low polyreactivity
QVQLVESGGGLVQAGGSLRLSCAASGRTFSYNAMGWYRQAPGKERELVASISSSGTSTSYADSVKGRFTISRDNAKNTVYLQMNSLKPEDTAVYYCATVRYPYWYSGPQNSRGYWGQGTQVTVSS | high polyreactivity
QVQLVESGGGLVQAGGSLRLSCAASGRIFRYNAMGWYRQAPGKERELVAAISTSGTRTFYADSVKGRFTISRDNAKNTVYLQMNSLKPEDTAVYYCNKVAGPGKLGTYYYWGQGTQVTVSS | high polyreactivity
QVQLVESGGGLVQAGGSLRLSCAASGFTFYRYDMGWYRQAPGKERELVAAITNNGGNTYYADSVKGRFTISRDNAKNTVYLQMNSLKPEDTAVYYCATKRYYWRGYWGQGTQVTVSS | high polyreactivity
QVQLVESGGGLVQAGGSLRLSCAASGFIFDQYAMGWYRQAPGKERELVATITSDGDTYYADSVKGRFTISRDNAKNTVYLQMNSLKPDDTAFYYFAVDPGPYTTGYEYWGQGTQLTVSS | low polyreactivity
QVQLVESGGGLVQAGGSLRLSCAASGSIFGVNAMGWYRQAPGKERELVATISASGGSTYYADSVKGRFTISRDNAKNTVYLQMNSLKPEDTAVYYCATVVSPSPEMDYWGQGTQVTVSS | low polyreactivity
